Laboratory results: the supplement of paper PMC12455559
± gives the standard deviation of the averaged measurements.

Assays:
[1] = melting temperature (DSF); higher = more thermostable
In short: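 Enzymes made in E. coli C41(DE3) were nickel-bead purified and cut free with SUMO protease before testing. Differential scanning fluorimetry gave each melting temperature. For this, 5 μL 5X Sypro Orange was added to 45 μL enzyme (0 to 0.3 mg/mL) in sealed PCR plates, and a Bio-Rad CFX96 read fluorescence from 25 °C over 250 cycles of 0.3 °C each, ramping at 0.3 °C/s.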

[2] = purified protein yield per well (BCA); higher = higher soluble expression
In short: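 Candidate enzymes were made in 2 mL autoinduction cultures of E. coli C41(DE3) with 100 µg/mL kanamycin, at 37 °C for 2 h and then 18 °C for 40 h, and purified with Ni-charged magnetic beads and SUMO protease cleavage. The Pierce Rapid Gold BCA kit gave purified protein yield per well. Values lower than 25 ug (0.1 mg/mL) are below the detection threshold.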

[3] = PET hydrolysis, aromatic products released after 48 h (umol product/mg enzyme); higher = more PET depolymerization activity
In short: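 The measure of PET hydrolysis activity is aromatic product released into the supernatant, given per mg enzyme. Nickel-purified, SUMO-cleaved enzyme without tag was added at 5 μg (50 μL) to 3.5 mg amorphous PET film or crystalline PET powder in 450 μL of citrate, phosphate or glycine buffer spanning pH 4.5 to 8.5. After 48 h at 40 or 60 °C in sealed plates without shaking, absorbance at 260 and 280 nm was taken against buffer blanks.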

[4] = substrate: aFilm, 40 °C, pH 4.5
[5] = substrate: aFilm, 40 °C, pH 5.5
[6] = substrate: aFilm, 40 °C, pH 6.5
[7] = substrate: aFilm, 40 °C, pH 7.5
[8] = substrate: aFilm, 60 °C, pH 4.5
[9] = substrate: aFilm, 60 °C, pH 5.5
[10] = substrate: aFilm, 60 °C, pH 6.5
[11] = substrate: aFilm, 60 °C, pH 7.5
[12] = substrate: cryPow, 40 °C, pH 4.5
[13] = substrate: cryPow, 40 °C, pH 5.5
[14] = substrate: cryPow, 40 °C, pH 6.5
[15] = substrate: cryPow, 40 °C, pH 7.5
[16] = substrate: cryPow, 60 °C, pH 4.5
[17] = substrate: cryPow, 60 °C, pH 5.5
[18] = substrate: cryPow, 60 °C, pH 6.5
[19] = substrate: cryPow, 60 °C, pH 7.5
[20] = substrate: cryPow, 40 °C, pH 8.5
[21] = substrate: cryPow, 60 °C, pH 8.5

| Sequence | melting temperature [1] [C] | purified protein yield per well [2] [µg] | PET hydrolysis [3, 4] | PET hydrolysis [3, 5] | PET hydrolysis [3, 6] | PET hydrolysis [3, 7] | PET hydrolysis [3, 8] | PET hydrolysis [3, 9] | PET hydrolysis [3, 10] | PET hydrolysis [3, 11] | PET hydrolysis [3, 12] | PET hydrolysis [3, 13] | PET hydrolysis [3, 14] | PET hydrolysis [3, 15] | PET hydrolysis [3, 16] | PET hydrolysis [3, 17] | PET hydrolysis [3, 18] | PET hydrolysis [3, 19] | PET hydrolysis [3, 20] | PET hydrolysis [3, 21] |
| --- | --- | --- | --- | --- | --- | --- | --- | --- | --- | --- | --- | --- | --- | --- | --- | --- | --- | --- | --- | --- |
| QSSSAAANPYERGPAPTVSSVAAQRGTFATAEVTVPPGNGFNGGKIYYPTDTSLGTWGAVAAVPGYTARWSAEGAWMGPWLASFGFVVIGIDTNSPNDYDTARGTQLLAALDYLTRKSPVHDRVDPNRLGVIGHSMGGGGAISAAERRPSLKAAVPLAPFSPSQNLSSLRVPTMIMGARDDGTVTPSYLDGLYSGMPAATQSAYIELTSGGHGFPTWGNSHVTRRAIPWLKIFLDNDTRYTQFLCPSPADSREVSRSQTKCPYVPPGGTTTPPSGEQIVGAASGRCLDVVNSSQTSGAQAHPWDCADRPGQKWARTDAGELRVYSNKCLDAEASGTSAGTRVVIWACHGRQNQRWNVNANGTITSVPSGLCLDTYNGGTGNGAQSVLGNCNGASTQRWTLR [TEP086] | 56.8 | 385 | < 3 | < 3 | < 3 | < 3 | < 3 | < 3 | < 3 | < 3 | < 3 | < 3 | < 3 | < 3 | < 3 | < 3 | < 3 | < 3 | – | – |
| QSSSCSLMGDVNESNGVDIVDALLIAQAYVGLNPEMEYNPCADVDCSGSMNIVDALLVAQKYVGLISNFPCQISPEPTTEPTSEPVLFIACGSSSAVGSFQADEYFSGGNTHSNSNSVDISRITVNTPPAGLFNNERYGEMSYNIPGLSAGETYTVTLYFAETYLSSSGSRLFNVSINHSDVLTSFDIYDSAGGQNIAVSYSFITTADNSGNILIDFASVTENPKINGIAIMAGIGPTNVPTPEPTPTPENSGFQRGPDPSLASISANRGTFATAELTFPAGNGFGGGFIYYPTDTSLGTWGAVAICPGGSAKFANEETWMGHWLASFGFVVIGIETNNTFDFPESRGTQLLAALDYLVQKSAVKDRVDPDRLMVMGHSMGGGGAFHAALARSSLKTMVALAPWFNTNLTSPSLSNLRMPTMVISARNDTVVTPASCSAIYDKIPTSTQRAWVELAADDHLGFIKPNYTEMRVLIPWMKIFLDSDERYVQFLCPMANSSNISIYKNSCPLVP [TEP098] | 51.7 | 50.5 | – | – | – | – | – | – | – | – | < 3 | < 3 | < 3 | < 3 | – | – | – | – | – | – |
| QTNPFQRGPAPTEATLEATRGPMATSQFTVSRPSGYRAGTVYYPTNAGGTVGGIVVVPGYTAYQSDINWWGPRLASWGFIVMTIDTNSTLDQPASRSRQQLAALDQLATLSRTSSSPIYNKLDTNRMGVMGWSMGGGGSLISTENRPSLKASIPFAPWNSTENFSSVTVPTLIIACQDDSIAPVYSHASPFYNSMTRNPKQFLEVRGEGHYCANSSNSDKDFLGKKGVAWMKRFMDNDTRFTTFACTNQESSLDVSDFRTARCS [DP032] | 44.5 | 38 | – | – | – | – | – | – | – | – | – | < 3 | < 3 | < 3 | – | – | – | – | < 3 | – |
| QTNPYQKGPAPTVANLEAARGSFAVSSTSISSLSATGFGGGSLHYPTAAGTYGLIAVAPPYLAQSSSIAWLGPRLASHGFVVVMIDVNSTLDFPESRSRQQLAAIDYAIAQNARRTSPIYGKVDTTRRGVTGHSMGGGASILTARNSPANIKGAFPLTPWSSDKNFSNLQVPTGYLACQDDTVAGNADHSLNFYNRMPASTPKGYYELRGETHFCPQSTTNNPVIGKYLVAWMKRFVDNDTRFSPFLSGALPNADLSSGRFSVLRTSGL [DP075] | 49.3 | 33 | – | – | – | – | – | – | – | – | – | < 3 | < 3 | < 3 | – | – | – | – | < 3 | – |
| QYQKGPDPTTSSLERAGSFATRTISVSSLAASGFGGGRIYYPTASGSYGVIAVSPGYTGTASTMYFWGERLSSHGFVVIVIETNTLLDQPGSRANQLMAALNYTVSQGNSRTSALYGKVDGNRRGVAGHSMGGGGTLIAAADNASLKAAVPMAPWNLSSLSFRGIRVPTMIFGCQSDAIAPVNTHAVPFYNAIPSSTKKGYVEMRLDDHFCVMNGGGHYETLGKLGISWFKRFIDEDTRYSKFLCGTEYNATVRSTEVSDSKNNCPY [DP039] | 47.8 | 57 | – | – | – | – | – | – | – | – | – | < 3 | 3 | 4 | – | < 3 | < 3 | < 3 | 3 | < 3 |
| QYQKGPDPTVAGLERDGTFAIRTTTVSRLSASGFGGGTIYYPTATGSYGVVAVSPGFTAYQSSISWIGSRLASHGFVVITIDTNTTSDQPDSRARQLKAALDKVVSLASSRTNVLYGKVDSSRLAVAGHSMGGGGSLAAARDYPSLKASVPLAPWHTTKSFSTVRVPTLIVGADGDTVASVTSHSIPFYTSIPSSTPKGYLELNNEDHFFPQDSGEYGLVGKYMISWFKRFVDSDTRYSPFLCGAPHQTQIANTLRVSDSRTNCPY [DP038] | 56.2 | 54 | – | – | – | – | – | – | – | – | – | 6 | 55 | 59 | – | < 3 | < 3 | < 3 | 54 | < 3 |
| QYQKGPDPTVSALERTGSFATRTTTVSRTSASGFGGGTIYYPTASGSYGAIAISPGFTAYQSSISWMGTRLASHGFVVITIDTITTSDQPDSRGRQLKAALDKVVSLSRSSSSPIYNKVDTTRLAVAGHSMGGGGTLAAARDYPSLKAAVPLAPWHTTKSWSRVTVPTLIIGGSTDTIASVGLHSIPFYTSLPSSTNKAYMELSGEGHFFPQTSSNYPLVGRYMISWFKRFVDGDSRYSPFLCGAQHQADLGLFSDISDYRENCPY [ESM169] | 61.3 | 219 | < 3 | 6 ± 1.4 | 10.5 ± 0.71 | 18.5 ± 0.71 | < 3 | < 3 | 6.5 ± 0.71 | 6 ± 1.4 | < 3 | 15 ± 2.8 | 32.5 ± 0.71 | 57 ± 11 | < 3 | 9 | 24.5 ± 2.1 | 29 ± 1.4 | – | – |
